This note sets out measurements from patent publication US20250298032A1 (INSTITUTE FOR RESEARCH IN BIOMEDICINE, published 2025).

One test addresses T1, CXCL16 N-loop peptide (human, biotin-Ahx at the N-terminus; amidated at the C-terminus).
T1 construct: Synthetic peptide, captured on Neutravidin-coated ELISA plates
T1 peptide: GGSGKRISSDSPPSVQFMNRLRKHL
The test is described as follows: ELISA, biotinylated CXCL16 N-loop peptide on neutravidin plate, anti-human IgG-HRP, OD450 nm. The method, then: (§1) To evaluate the antibodies' binding to chemokine peptides, 96-well plates (ThermoFisher, 442404) were coated with 50 μl per well of a 2 μg/ml Neutravidin (Life Technologies, 31000) solution in PBS, overnight at room temperature. Plates were washed 4 times with washing buffer (PBS+0.05% Tween-20 [Sigma-Aldrich]) and incubated with 50 μl per well of a 50 nM biotinylated peptide solution in PBS for 1 h at room temperature. After washing 4 times with washing buffer, plates were incubated with 200 μl per well of blocking buffer (PBS+2% BSA+0.05% Tween-20) for 2 h at room temperature. Plates were then washed 4 times with washing buffer, and serial dilutions of monoclonal antibodies or plasma were added in PBS +0.05% Tween-20 and incubated for 1 h at room temperature. To screen for the presence of anti-chemokine IgGs, plasma samples were assayed (unless otherwise stated) at 1:50 starting dilution followed by 3 fourfold serial dilutions (1:200, 1:800, 1:3200). Monoclonal antibodies were tested at 5 μg/ml starting concentration followed by 11 threefold serial dilutions. Plates were subsequently washed 4 times with washing buffer and incubated with anti-human IgG secondary antibody conjugated to horseradish peroxidase (HRP) (GE Healthcare, NA933) at a 1:5000 dilution in PBS+0.05% Tween-20. Finally, after washing 4 times with washing buffer, plates were developed by the addition of 50 μl per well of the HRP substrate TMB (ThermoFisher, 34021) for 9 min. The developing reaction was stopped with 50 μl per well of a 1 M H₂SO₄ solution, and absorbance was measured at 450 nm with an ELISA microplate reader (BioTek) with Gen5 software. A positive control (broadly reactive plasma from donor CLM70) and a negative control (uninfected participant) samples were included in each experiment. The Area Under the Curve (AUC) was obtained from two independent experiments and plotted with GraphPad Prism.

The target of the next test is T2, CXCL13 N-loop peptide (human, biotin-Ahx at the N-terminus; amidated at the C-terminus).
T2 construct: Synthetic peptide, captured on Neutravidin-coated ELISA plates
T2 peptide: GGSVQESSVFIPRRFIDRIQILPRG
Description: ELISA, biotinylated CXCL13 N-loop peptide on neutravidin plate, anti-human IgG-HRP, OD450 nm. The protocol:
as §1
A general note: An ELISA detects its analyte on a solid surface through an enzyme-linked reagent.

The next test addresses T3, CCL20 N-loop peptide (human, biotin-Ahx at the N-terminus; amidated at the C-terminus).
T3 construct: Synthetic peptide, captured on Neutravidin-coated ELISA plates
T3 peptide: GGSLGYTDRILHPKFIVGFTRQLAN
The test is described as follows: ELISA, biotinylated CCL20 N-loop peptide on neutravidin plate, anti-human IgG-HRP, OD450 nm. The protocol: as §1, with “Plates were subsequently washed 4 times with washing buffer and incubated with anti-human IgG secondary antibody conjugated to horseradish peroxidase (HRP) (GE Healthcare, NA933) at a 1:5000 dilution in PBS+0.05% Tween-20. Finally, after washing 4 times with washing buffer, plates were developed by the addition of 50 μl per well of the HRP substrate TMB (ThermoFisher, 34021) for 9 min.” left out, “A positive control (broadly reactive plasma from donor CLM70) and a negative control (uninfected participant) samples were included in each experiment. The Area Under the Curve (AUC) was obtained from two independent experiments and plotted with GraphPad Prism.” left out

B1: aCXCL16.003 (antibody, human IgG1, V domains shown)
VH: EVQLVQSGAEVKKPGESLKISCKGSGYSFTSYWIGWVRQMPGKGLEWMGIIYPGDSDTRYSPSFQGQVTISADKSISTAYLQWSSLKASDTAMYYCARLHGDLYYFDYWGQGTLVTVSS
VL: QSVLTQEASVSGTVGQKVTLSCTGNSNNVGSYAVGWYQQISHGAPKTVMFGNSLPSGIPDRFSGSKSGTTASLTISGLQPEDEADYYCSTWDYSLSAQVFGGGTKLTVL
notes: also called anti-CXCL16 N-loop antibody
The term EC50 (read off the curve) denotes the concentration at which the effect is half-maximal. With B1, in the test with CXCL16 N-loop peptide, the “EC50 (read off the curve)” value was around 0.2 µg/mL.

B2: aCXCL16.002 (antibody, human IgG1, V domains shown)
VH: EVQLVESGGGLSQPGWSLRLSCAASGLTVTRNYMSWVRQAPGKGLEWVSTLWTDGQKFYADSVKGRFTVSRDSYTNTLNLEMSGLRAEDTAVYFCTRDKVVPVRITPDYHYYGMDVWGQGTTVTVSS
VL: DIQLTQSPSFLSASVGDRVTITCRASQGVRRYLAWYQQKPGKAPKFLIYGASSLHTGVPSRFSGGGSDTEFTLTISNLQTEDFATYYCQQLDTYPLTFGGGTKVEIK
notes: as for B1
B2: the binding result with CXCL16 N-loop peptide is given as “binds”.

B3: aCXCL13.002 (antibody, V domains shown)
VH: EVQLVESGGGLVKPGGSLRLSCAASGFTFSSYSMNWVRQAPGKGLEWVSSISSSSSYIYYADSVKGRFTISRDNAKNSLYLQMNSLRAEDTAVYYCARDGIYDYAPVDYWGQGTLVTVSS
VL: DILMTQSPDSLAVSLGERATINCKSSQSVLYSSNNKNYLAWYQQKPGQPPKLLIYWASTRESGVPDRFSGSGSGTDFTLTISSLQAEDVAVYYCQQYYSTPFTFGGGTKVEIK
notes: also called anti-CXCL13 N-loop antibody
For B3, in the test with CXCL13 N-loop peptide, the binding result is on record as “binds”.

B4: aCCL20.001 (antibody, V domains shown)
VH: QVQLVQSGAEVKKPGASVKISCKASGYTFTNHYMHWVRQAPGVGLEWMGIVNPSGGNTSYARNFQGRIIMTRDMSTRTIYMELGSLRSEDTAVYYCARDGSHYDDDGGYYGDAFDIWGQGTMVTVSS
VL: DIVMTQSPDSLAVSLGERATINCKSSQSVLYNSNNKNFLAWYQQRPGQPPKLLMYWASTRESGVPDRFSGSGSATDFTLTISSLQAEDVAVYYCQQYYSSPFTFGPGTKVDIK
notes: also called anti-CCL20 N-loop antibody
For the molecule B4, in the test with CCL20 N-loop peptide, the “EC50 (read off the curve)” value is around 0.04 µg/mL.

B5: aCXCL13.003 (antibody, V domains shown)
VH: QVQLQEWGAGLLKPSETLSLTCAVYGGSFSGYYWSWIRQPPGKGLEWIGEINHSGSTNYNPSLKSRVTISVDTSKNQFSLKLSSVTAADTAVYYCARAGRSYGDYGAFDIWGQGTMVTVSS
VL: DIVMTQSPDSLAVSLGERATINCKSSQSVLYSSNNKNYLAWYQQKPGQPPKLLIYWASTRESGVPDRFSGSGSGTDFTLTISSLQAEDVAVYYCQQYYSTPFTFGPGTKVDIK
notes: as for B3
Take B5: the binding result with CXCL13 N-loop peptide was “binds”.

B6: aCXCL16.001 (antibody, human IgG1, V domains shown)
VH: EVQLVESGGGLVKPGESLTLSCVASGYPFANAWMSWVRQAPGKGLEWVGRIKTKSEGETTDYAPLVRGRFTISRDDSKTTVFLQMNSLKTEDTGMYYCTTVFFWGRGTLVTVSS
VL: SYELTQPPSVSVSPGQTARITCSGDALSQQYLFWHQQRPGQAPKVVISKDTERPSGIPERFSGSISGTTGTLTISGVQTEDEADYYCHSTDISDSYWVFGGGTKLTVL
notes: as for B1
Regarding B6, the “EC50 (read off the curve)” value with CXCL16 N-loop peptide is around 0.1 µg/mL.
